{"source": "paper PMC7015237", "about": "“mTORC1 signalling is not essential for the maintenance of muscle mass and function in adult sedentary mice” (Journal of Cachexia, Sarcopenia and Muscle, 2019)", "binders": {"B1": {"name": "eukaryotic translation initiation factor 4E-binding protein 1 (natural protein, UniProt Q60876 1-117, looked up)", "chain": "MSAGSSCSQTPSRAIPTRRVALGDGVQLPPGDYSTTPGGTLFSTTPGGTRIIYDRKFLMECRNSPVAKTPPKDLPAIPGVTSPTSDEPPMQASQSQLPSSPEDKRAGGEESQFEMDI", "notes": "Phosphorylation of 4E-BP1 (S65) is lower in iRAmKO muscle than in controls; the phosphorylation state of the pulled-down protein was not determined; also called 4E-BP1; source: endogenous, mouse gastrocnemius muscle lysate (3 month iRAmKO and control mice)"}}, "molecular_target": "T1, eukaryotic translation initiation factor 4E (mouse (endogenous in gastrocnemius …, UniProt P63073 1-217))", "T1 construct": "eukaryotic translation initiation factor 4E (eIF4E), mouse, endogenous in gastrocnemius muscle; also called eIF4E; source: endogenous, mouse gastrocnemius muscle lysate (3 month iRAmKO and control mice)", "T1 sequence (P63073 whole entry)": "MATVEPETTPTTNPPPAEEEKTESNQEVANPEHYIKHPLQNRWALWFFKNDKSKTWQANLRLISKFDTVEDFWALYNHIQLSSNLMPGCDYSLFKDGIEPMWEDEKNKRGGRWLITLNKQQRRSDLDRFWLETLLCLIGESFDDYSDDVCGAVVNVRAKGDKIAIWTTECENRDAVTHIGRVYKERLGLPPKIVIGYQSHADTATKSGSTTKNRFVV", "experiment": "pull-down; m7GTP-agarose beads on 400 ug gastrocnemius lysate of 3 month iRAmKO (raptor-depleted) and control mice, overnight at 4°C; lysis buffer 20 mM Hepes pH 7.4, 50 mM KCl, 0.2 mM EDTA, 0.5% Triton X-100; western blot for eIF4E and 4E-BP1; 4E-BP1 normalised to eIF4E", "details": "partners not purified"}
{"binder": "B1", "values": [{"measurement": "fold change of the ratio of 4E-BP1 to eIF4E in the m7GTP pulldown, iRAmKO against control mice", "value": 2.5, "unit": "fold"}]}
